These results are taken from US20080105961A1, “Ligands of the Molecule Fit (Agt-121) and their Pharmaceutical Use” (priority 2004, published 2008).

Marks after values point to notes of the source that are not given here.

The target in assay [1] is T1, FIT-NP (FIT N-terminal plus proline-rich region) (Homo sapiens, UniProt Q9BQI5).
T1 construct: expressed in transfected cells
T1 sequence (Q9BQI5 with tags, fused parts or gaps I33M/P40L/N43H/V56A/I186T/P191L/T195L/E211G/Q212H/I230V/T240A/N255T/I269V/G270A/P271T/S276A/V280A/L285P/N289S/A308T/K311T/T318A/S335T/T339A/P340S/N342I/A348T/L352P/P357S/T358A/DEL367-367/L371P/I397L/D402E/F403C/A409E/P432S/P434T/T437A/R454S/S455C/T456S): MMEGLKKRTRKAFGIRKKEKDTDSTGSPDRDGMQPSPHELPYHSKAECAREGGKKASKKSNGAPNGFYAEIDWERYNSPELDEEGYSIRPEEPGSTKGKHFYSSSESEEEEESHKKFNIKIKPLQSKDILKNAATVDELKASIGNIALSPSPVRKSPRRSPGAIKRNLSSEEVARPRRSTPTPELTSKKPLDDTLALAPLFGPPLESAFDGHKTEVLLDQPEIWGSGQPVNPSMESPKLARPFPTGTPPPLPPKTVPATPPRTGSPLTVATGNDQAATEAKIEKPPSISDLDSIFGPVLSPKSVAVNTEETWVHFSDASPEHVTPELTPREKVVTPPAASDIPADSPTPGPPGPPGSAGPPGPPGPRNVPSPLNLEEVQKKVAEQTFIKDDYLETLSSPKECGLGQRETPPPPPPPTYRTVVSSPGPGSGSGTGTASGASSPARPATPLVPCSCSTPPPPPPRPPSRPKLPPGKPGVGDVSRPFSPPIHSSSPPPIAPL
As to the kind of experiment: Yeast two-hybrid screen of human brain cDNA library, bait FIT-NP. It counts as binding. The note with it: for Number of clones: bait FIT-NP, human brain cDNA library, clones listed highest to lowest interacting strength; for strength of interaction with FIT: in yeast. The source says: (§1) In order to perform these experiments, two truncated fragments of FIT were constructed to be used as baits in a yeast two-hybrid screen of a human brain cDNA library: one bait consisting of the N-terminal region plus the central proline-rich region, and the other bait consisting of the central proline-rich region alone. The inventors utilised a yeast two-hybrid system which incorporates modifications by Chevray and Nathans (1992), and Vidal et al. (1996) to screen a human brain cDNA library. FIT fragments were PCR amplified, purified and then cloned into an appropriate vector. Sense oligonucleotides for FIT-NP (5′-[…]-3′: SEQ ID NO:72), and FIT-PR (5′-[…]-3′: SEQ ID NO:73), with Sal1 restriction enzyme sites underlined, were used in conjunction with a common antisense oligonucleotide (5′-[…]-3′: SEQ ID NO:74), with the Not1 restriction enzyme site underlined.
(§2) Human brain cDNA inserts were prepared and cloned into the expression vector according to manufacturer's instructions.

A further assay deals with melanocortin receptor. Kind of assay: Feeding response to ICV injection of SHU9119 after three days of ODN or saline infusion. It counts as in vivo, Sprague Dawley rats. The note with it: mean ± SEM. The source says: To further analyse the link between FIT and the melanocortin system, the feeding response of Sprague Dawley rats to an ICV injection of SHU9119, a melanocortin receptor antagonist and known feeding stimulator was investigated. After three days of FIT antisense treatment, jumbled oligonucleotide or saline infusion, responses were compared to rats receiving an ICV injection of saline vehicle rather than SHU9119.

In assay [2] the target is T2, FIT-PR (FIT proline-rich region) (Homo sapiens, UniProt Q9BQI5).
T2 construct: expressed in transfected cells
T2 sequence (Q9BQI5 with tags, fused parts or gaps N255T/I269V/G270A/P271T/S276A/V280A/L285P/N289S/A308T/K311T/T318A/S335T/T339A/P340S/N342I/A348T/L352P/P357S/T358A/DEL367-367/L371P/I397L/D402E/F403C/P432S/P434T/T437A/R454S/S455C/T456S): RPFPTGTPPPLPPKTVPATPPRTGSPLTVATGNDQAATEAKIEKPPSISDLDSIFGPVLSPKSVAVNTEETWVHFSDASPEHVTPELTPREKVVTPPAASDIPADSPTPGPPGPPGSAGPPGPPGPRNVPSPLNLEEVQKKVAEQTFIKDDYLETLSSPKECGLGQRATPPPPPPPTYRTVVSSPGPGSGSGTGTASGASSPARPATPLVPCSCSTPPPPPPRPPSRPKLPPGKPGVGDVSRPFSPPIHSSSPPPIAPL
Kind of assay: Yeast two-hybrid screen of human brain cDNA library, bait FIT-PR. It counts as binding. The note with it: clones listed highest to lowest interacting strength.
Text: as §1, with “To investigate the mechanism by which FIT regulates energy balance, neural proteins that interact with FIT were identified. In” for “In”
as §2

“MAD2: FIT interacting protein isolated from a human brain cDNA library”: the Number of clones in assay [1] is given as 1.

Regarding SHU9119, the “Δ FI” value in the assay with melanocortin receptor (48 hr food intake post minus pre injection) turned out to be 0.02 ± 0.01 g/g BW. Also, the “48 hr FI post injection” value in the assay on melanocortin receptor (food intake relative to body weight, after ICV SHU9119 or vehicle injection) was 0.16 ± 0.01^a g/g BW. For the same molecule, the “48 hr FI pre injection” value with melanocortin receptor (food intake relative to body weight, during ICV infusion, before SHU9119 or vehicle injection) was 0.14 ± 0.01 g/g BW.

Take “β-arrestin 1: FIT interacting protein isolated from a human brain cDNA library”: in assay [1], the Number of clones is on record as 1 and the “strength of interaction with FIT” value is “slightly lesser strength”.

B1: α-1 subunit of the AP2 complex: FIT interacting protein isolated from a human brain cDNA library (protein)
chain: MPAVSKGDGMRGLAVFISDIRNCKSKEAEIKRINKELANIRSKFKGDKALDGYSKKKYVCKLLFIFLLGHDIDFGHMEAVNLLSSNKYTEKQIGYLFISVLVNSNSELIRLINNAIKNDLASRNPTFMCLALHCIANVGSREMGEAFAADIPRILVAGDSMDSVKQSAALCLLRLYKASPDLVPMGEWTARVVHLLNDQHMGVVTAAVSLITCLCKKNPDDFKTCVSLAVSRLSRIVSSASTDLQDYTYYFVPAPWLSVKLLRLLQCYPPPEDAAVKGRLVECLETVLNKAQEPPKSKKVQHSNAKNAILFETISLIIHYDSEPNLLVRACNQLGQFLQHRETNLRYLALESMCTLASSEFSHEAVKTHIDTVINALKTERDVSVRQRAADLLYAMCDRSNAKQIVSEMLRYLETADYAIREEIVLKVAILAEKYAVDYSWYVDTILNLIRIAGDYVSEEVWYRVLQIVTNRDDVQGYAAKTVFEALQAPACHENMVKVGGYILGEFGNLIAGDPRSSPPVQFSLLHSKFHLCSVATRALLLSTYIKFINLFPETKATIQGVLRAGSQLRNADVELQQRAVEYLTLSSVASTDVLATVLEEMPPFPERESSILAKLKRKKGPGAGSALDDGRRDPSSNDINGGMEPTPSTVSTPSPSADLLGLRAAPPPAAPPASAGAGNLLVDVFDGPAAQPSLGPTPEEAFLSELEPPAPESPMALLADPAPAADPGPEDIGPPIPEADELLNKFVCKNNGVLFENQLLQIGVKSEFRQNLGRMYLFYGNKTSVQFQNFSPTVVHPGDLQTQLAVQTKRVAAQVDGGAQVQQVLNIECLRDFLTPPLLSVRFRYGGAPQALTLKLPVTINKFFQPTEMAAQDFFQRWKQLSLPQQEAQKIFKANHPMDAEVTKAKLLGFGSALLDNVDPNPENFVGAGIIQTKALQVGCLLRLEPNAQAQMYRLTLRTSKEPVSRHLCELLAQQF
modifications: left off: large carriers
In the case of B1, in assay [1], the Number of clones worked out at 8 and the “strength of interaction with FIT” value is reported as “slightly lesser strength”.

B2: RNA-binding protein EWS: FIT interacting protein isolated from a human brain cDNA library (protein)
chain: MASTDYSTYSQAAAQQGYSAYTAQPTQGYAQTTQAYGQQSYGTYGQPTDVSYTQAQTTATYGQTAYATSYGQPPTGYTTPTAPQAYSQPVQGYGTGAYDTTTATVTTTQASYAAQSAYGTQPAYPAYGQQPAATAPTRPQDGNKPTETSQPQSSTGGYNQPSLGYGQSNYSYPQVPGSYPMQPVTAPPSYPPTSYSSTQPTSYDQSSYSQQNTYGQPSSYGQQSSYGQQSSYGQQPPTSYPPQTGSYSQAPSQYSQQSSSYGQQSSFRQDHPSSMGVYGQESGGFSGPGENRSMSGPDNRGRGRGGFDRGGMSRGGRGGGRGGMGSAGERGGFNKPGGPMDEGPDLDLGPPVDPDEDSDNSAIYVQGLNDSVTLDDLADFFKQCGVVKMNKRTGQPMIHIYLDKETGKPKGDATVSYEDPPTAKAAVEWFDGKDFQGSKLKVSLARKKPPMNSMRGGLPPREGRGMPPPLRGGPGGPGGPGGPMGRMGGRGGDRGGFPPRGPRGSRGNPSGGGNVQHRAGDWQCPNPGCGNQNFAWRTECNQCKAPKPEGFLPPPFPPPGGDRGRGGPGGMRGGRGGLMDRGGPGGMFRGGRGGDRGGFRGGRGMDRGGFGGGRRGGPGGPPGPLMEQMGGRRGGRGGPGKMDKGEHRQERRDRPY
modifications: left off: large carriers
In the case of B2, in assay [1], the Number of clones amounted to 1.

B3: α-2 subunit of the AP2 complex: FIT interacting protein isolated from a human brain cDNA library (protein)
chain: MPAVSKGDGMRGLAVFISDIRNCKSKEAEIKRINKELANIRSKFKGDKALDGYSKKKYVCKLLFIFLLGHDIDFGHMEAVNLLSSNRYTEKQIGYLFISVLVNSNSELIRLINNAIKNDLASRNPTFMGLALHCIASVGSREMAEAFAGEIPKVLVAGDTMDSVKQSAALCLLRLYRTSPDLVPMGDWTSRVVHLLNDQHLGVVTAATSLITTLAQKNPEEFKTSVSLAVSRLSRIVTSASTDLQDYTYYFVPAPWLSVKLLRLLQCYPPPDPAVRGRLTECLETILNKAQEPPKSKKVQHSNAKNAVLFEAISLIIHHDSEPNLLVRACNQLGQFLQHRETNLRYLALESMCTLASSEFSHEAVKTHIETVINALKTERDVSVRQRAVDLLYAMCDRSNAPQIVAEMLSYLETADYSIREEIVLKVAILAEKYAVDYTWYVDTILNLIRIAGDYVSEEVWYRVIQIVINRDDVQGYAAKTVFEALQAPACHENLVKVGGYILGEFGNLIAGDPRSSPLIQFHLLHSKFHLCSVPTRALLLSTYIKFVNLFPEVKPTIQDVLRSDSQLRNADVELQQRAVEYLRLSTVASTDILATVLEEMPPFPERESSILAKLKKKKGPSTVTDLEDTKRDRSVDVNGGPEPAPASTSAVSTPSPSADLLGLGAAPPAPAGPPPSSGGSGLLVDVFSDSASVVAPLAPGSEDNFARFVCKNNGVLFENQLLQIGLKSEFRQNLGRMFIFYGNKTSTQFLNFTPTLICSDDLQPNLNLQTKPVDPTVEGGAQVQQVVNIECVSDFTEAPVLNIQFRYGGTFQNVSVQLPITLNKFFQPTEMASQDFFQRWKQLSNPQQEVQNIFKAKHPMDTEVTKAKIIGFGSALLEEVDPNPANFVGAGIIHTKTTQIGCLLRLEPNLQAQMYRLTLRTSKEAVSQRLCELLSAQF
modifications: left off: large carriers
On to B3, for which, in assay [1], the Number of clones was 1 and the “strength of interaction with FIT” value is on record as “slightly lesser strength”.

B4: endophilin 3: FIT interacting protein isolated from a human brain cDNA library (protein)
chain: MSVAGLKKQFHKASQLFSEKISGAEGTKLDDEFLDMERKIDVTNKVVAEILSKTTEYLQPNPAYRAKLGMLNTVSKIRGQVKTTGYPQTEGLLGDCMLKYGKELGEDSTFGNALIEVGESMKLMAEVKDSLDINVKQTFIDPLQLLQDKDLKEIGHHLKKLEGRRLDYDYKKKRVGKIPDEEVRQAVEKFEESKELAERSMFNFLENDVEQVSQLAVFIEAALDYHRQSTEILQELQSKLQMRISAASSVPRREYKPRPVKRSSSELNGVSTTSVVKTTGSNIPMDQPCCRGLYDFEPENQGELGFKEGDIITLTNQIDENWYEGMIHGESGFFPINYVEVIVPLPQ
modifications: left off: large carriers
As for B4, in assay [1], the Number of clones is 7 and the “strength of interaction with FIT” value was “very strongly”. In assay [2], the Number of clones turned out to be 2.
